Data on one molecule can be found in PMC6308570.

The target of this data set is thrombin (UniProt P00734;P00734 328-363;364-622). The data set is described as follows: etched fiber Bragg grating biosensor (immobilized aptamer); thrombin 10, 20, 40, 80 nM; 5 mM MgCl2; Affinity buffer 50 mM Tris-HCl pH 7.4, 250 mM NaCl, 5 mM MgCl2; 2 h incubation; surface blocked with 1% BSA; temperature not stated.

Turning to TTTTTAGTCCGTGGTAGGGCAGGTTGGGGTGACT (ssDNA, 5' amino C6 (AmC6F)) [amine-modified thrombin binding aptamer (29-mer with T5 spacer)], the binding result is “binds”.
